Test results published in patent US20190177410A1 (Regeneron, published 2019).

T1: full-length human APLNR (hAPLNR) (human, UniProt P35414 1-380)
T1 sequence: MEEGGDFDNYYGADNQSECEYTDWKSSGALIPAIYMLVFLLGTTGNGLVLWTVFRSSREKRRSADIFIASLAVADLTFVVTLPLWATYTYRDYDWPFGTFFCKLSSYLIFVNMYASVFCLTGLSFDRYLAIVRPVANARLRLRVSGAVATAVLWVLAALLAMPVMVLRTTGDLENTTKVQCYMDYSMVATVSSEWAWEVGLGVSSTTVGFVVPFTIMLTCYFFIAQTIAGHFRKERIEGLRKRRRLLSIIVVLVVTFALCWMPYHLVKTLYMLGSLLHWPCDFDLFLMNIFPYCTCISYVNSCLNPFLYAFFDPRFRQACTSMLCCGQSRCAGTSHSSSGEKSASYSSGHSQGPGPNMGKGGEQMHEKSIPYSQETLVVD

T2: human Apelin receptor (hAPLNR) of PathHunter eXpress AGTRL1 CHO-K1 beta-Arrestin cells (human, UniProt P35414 1-380)
T2 sequence: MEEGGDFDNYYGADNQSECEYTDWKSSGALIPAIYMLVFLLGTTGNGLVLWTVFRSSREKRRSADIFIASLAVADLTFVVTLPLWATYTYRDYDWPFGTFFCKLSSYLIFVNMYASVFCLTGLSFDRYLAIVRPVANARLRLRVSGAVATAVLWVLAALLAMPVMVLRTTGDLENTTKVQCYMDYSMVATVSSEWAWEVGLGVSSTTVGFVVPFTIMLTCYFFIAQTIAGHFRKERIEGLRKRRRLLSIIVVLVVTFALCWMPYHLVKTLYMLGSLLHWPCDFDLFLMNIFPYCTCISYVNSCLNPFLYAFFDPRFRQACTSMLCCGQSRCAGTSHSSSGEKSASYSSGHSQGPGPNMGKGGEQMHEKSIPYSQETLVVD


Experiments:
Test in all cases: cell-based or functional assay
[1] = biological target: T1, full-length human APLNR (hAPLNR)
[2] = biological target: T1, full-length human APLNR (hAPLNR); remark: listed apart in the source
[3] = biological target: T1, full-length human APLNR (hAPLNR); remark: listed apart in the source
[4] = biological target: T2, human Apelin receptor (hAPLNR) of …

| Binder | EC50 (M), CRE assay (5 uM forskolin), HEK293/CRE-luc/hAPLNR [1] | % Activation at 500 nM antibody or Apelin-antibody fusion, PathHunter beta-Arrestin assay [4] | also measured |
| --- | --- | --- | --- |
| PRPRLSHKGPM [Apelin66-75] | 2.17e-12 M |  |  |
| H4H9093P-APNV5-11-(G4S)3 (antibody) VH: GKPIPNPLLGLDSTQRPRLSHKGPMGGGGSGGGGSGGGGSEVQLVESGGGLVKPGGSLRLSCAASGITFSNAWMSWVRQAPGKGLEWVGRFKGKADGGTVDYAAPVKGRFTISRDDSKNTLYLQMNSLKNEDTAVYYCTTGRITMVRGVLGYWGQGTLVTVSS VL: not shown |  |  | EC50 [M] (7.5 uM Forskolin), CRE-luc [2]: 5.8e-09 M |
| H4H9093P-APN10-(G4S)3 (antibody, V domains shown) VH: EVQLVESGGGLVKPGGSLRLSCAASGITFSNAWMSWVRQAPGKGLEWVGRFKGKADGGTVDYAAPVKGRFTISRDDSKNTLYLQMNSLKNEDTAVYYCTTGRITMVRGVLGYWGQGTLVTVSS VL: not shown |  | 5% | EC50 [M] (7.5 uM Forskolin), CRE-luc [2]: 1.4e-09 M; IC50 [M], in the presence of 100 pM Apelin (7.5 uM Forskolin), CRE-luc [3]: 3.2e-08 M; EC50 [M], PathHunter beta-Arrestin assay [4]: 6.5e-09 M |
| H4H9093P-APN11+S-(G4S)3 (antibody, V domains shown) VH: EVQLVESGGGLVKPGGSLRLSCAASGITFSNAWMSWVRQAPGKGLEWVGRFKGKADGGTVDYAAPVKGRFTISRDDSKNTLYLQMNSLKNEDTAVYYCTTGRITMVRGVLGYWGQGTLVTVSS VL: not shown |  | 37% | EC50 [M], PathHunter beta-Arrestin assay [4]: 2.7e-09 M |
| H4H9093P-APN11-(G4S)3 (antibody, V domains shown) VH: EVQLVESGGGLVKPGGSLRLSCAASGITFSNAWMSWVRQAPGKGLEWVGRFKGKADGGTVDYAAPVKGRFTISRDDSKNTLYLQMNSLKNEDTAVYYCTTGRITMVRGVLGYWGQGTLVTVSS VL: not shown |  | 64% | EC50 [M] (7.5 uM Forskolin), CRE-luc [2]: 1.6e-10 M; EC50 [M], PathHunter beta-Arrestin assay [4]: 5.8e-09 M |
| H4H9093P-APN9-(G4S)3 (antibody, V domains shown) VH: EVQLVESGGGLVKPGGSLRLSCAASGITFSNAWMSWVRQAPGKGLEWVGRFKGKADGGTVDYAAPVKGRFTISRDDSKNTLYLQMNSLKNEDTAVYYCTTGRITMVRGVLGYWGQGTLVTVSS VL: not shown |  | 4% | IC50 [M], in the presence of 100 pM Apelin (7.5 uM Forskolin), CRE-luc [3]: 1.3e-08 M |
| H4H9093P (antibody, human IgG4, V domains shown) VH: EVQLVESGGGLVKPGGSLRLSCAASGITFSNAWMSWVRQAPGKGLEWVGRFKGKADGGTVDYAAPVKGRFTISRDDSKNTLYLQMNSLKNEDTAVYYCTTGRITMVRGVLGYWGQGTLVTVSS VL: not shown |  |  | % Inhibition at 100 nM mAb, in the presence of 100 pM Apelin (at 7.5 uM Forskolin), CRE-luc [3]: 3% |

Further lines, with some results ahead:

| EC50 (M), CRE assay (5 uM forskolin), HEK293/CRE-luc/hAPLNR [1] | % Activation at 500 nM antibody or Apelin-antibody fusion, PathHunter beta-Arrestin assay [4] | Binder | also measured |
| --- | --- | --- | --- |
| 1.14e-13 M |  | PPRLSHKGPMP [Apelin67-76] |  |
| 3.74e-07 M |  | PPRLSHKGPM [Apelin67-75] |  |
| 5.19e-12 M |  | PRPRLSHKGPMP [Apelin66-76] |  |
| 4.38e-10 M |  | PPRLSHKGPMPF [Apelin-11] |  |
